According to US6566088:

Assays:
[1] = biological target: T1, Biotinylated human HIF-1a ODD peptide with L562A, not hydroxylated
T1 chain: DLDLEAAAPYIPADDDFQL

[2] = biological target: T2, Biotinylated human HIF-1a ODD peptide with Y565A, not hydroxylated
T2 chain: DLDLEALAPAIPADDDFQL

[3] = biological target: T3, Biotinylated human HIF-1a ODD peptide with A563G, not hydroxylated
T3 chain: DLDLEALGPYIPADDDFQL

[4] = biological target: T4, Biotinylated human HIF-1a ODD peptide with Pro567 to Gly, not hydroxylated
T4 chain: DLDLEALAPYIGADDDFQL

[5] = biological target: T5, Biotin-Acp-DLDLEALAPYIPADDDFQL, human HIF-1a ODD peptide, wild type, not hydroxylated
T5 chain: DLDLEALAPYIPADDDFQL

| Protein | prolyl hydroxylation of variant peptide substrates [1] | prolyl hydroxylation of variant peptide substrates [2] | prolyl hydroxylation of variant peptide substrates [3] | prolyl hydroxylation of variant peptide substrates [4] | prolyl hydroxylase activity [5] | prolyl hydroxylase activity, [^35S]-pVHL pull-down assay [5] |
| --- | --- | --- | --- | --- | --- | --- |
| recombinant human HPH 2 with amino-terminal MBP, purified from E. coli (protein) ANDSGGPGGPSPSERDRQYCELCGKMENLLRCSRCRSSFYCCKEHQRQDWKKHKLVCQGSEGALGHGVGPHQHSGPAPPAAVPPPRAGAREPRKAAARRDNASGDAAKGKVKAKPPADPAAAASPCRAAAGGQGSAVAAEAEPGKEEPPARSSLFQEKANLYPPSNTPGDALSPGGGLRPNGQTKPLPALKLALEYIVPCMNKHGICVVDDFLGKETGQQIGDEVRALHDTGKFTDGQLVSQKSDSSKDIRGDKITWIEGKEPGCETIGLLMSSMDDLIRHCNGKLGSYKINGRTKAMVACYPGNGTGYVRHVDNPNGDGRCVTCIYYLNKDWDAKVSGGILRIFPEGKAQFADIEPKFDRLLFFWSDRRNPHEVQPAYATRYAITVWYFDADERARAKVKYLTGEKGVRVELNKPSDSVGKDVF | unable to modify peptides containing the L562A, A563G or Y565A mutations | unable to modify peptides containing the L562A, A563G or Y565A mutations | unable to modify peptides containing the L562A, A563G or Y565A mutations | a peptide containing a mutation of Pro^567 to glycine served as an equal, if not better, substrate for the human HPH enzymes | Purified HPH 2 was able to hydroxylate the HIF-1a peptide substrate |  |
| human HPH 2 (splice variant) with carboxy-terminal V5-HIS tag, in vitro translated (protein) ANDSGGPGGPSPSERDRQYCELCGKMENLLRCSRCRSSFYCCKEHQRQDWKKHKLVCQGSEGALGHGVGPHQHSGPAPPAAVPPPRAGAREPRKAAARRDNASGDAAKGKVKAKPPADPAAAASPCRAAAGGQGSAVAAEAEPGKEEPPARSSLFQEKANLYPPSNTPGDALSPGGGLRPNGQTKPLPALKLALEYIVPCMNKHGICVVDDFLGKETGQQIGDEVRALHDTGKFTDGQLVSQKSDSSKDIRGDKITWIEGKEPGCETIGLLMSSMDDLIRHCNGKLGSYKINGRTKAMVACYPGNGTGYVRHVDNPNGDGRCVTCIYYLNKDWDAKVSGGILRIFPEGKAQFADIEPKFDRLLFFWSDRRNPHEVQPAYATRYAITVWYFDADERARAKVKYLTGEKGVRVELNKPSDSVGKDVF |  |  |  |  |  | both of these enzymes were observed to catalyze the hydroxylation of the key proline residue in the HIF-1a peptide substrate |
| human HPH 1 H196A with carboxy-terminal V5-HIS tag (protein) MPLGHIMRLDLEKIALEYIVPCLHEVGFCYLDNFLGEVVGDCVLERVKQLHCTGALRDGQLAGPRAGVSKRHLRGDQITWIGGNEEGCEAISFLLSLIDRLVLYCGSRLGKYYVKERSKAMVACYPGNGTGYVRHVDNPNGDGRCITCIYYLNKNWDAKLHGGILRIFPEGKSFIADVEPIFDRLLFFWSDRRNPAEVQPSYATRYAMTVWYFDAEERAEAKKKFRNLTRKTESALTED |  |  |  |  | Each of these mutations eliminated the prolyl hydroxylase activity of the native HPH 1 enzyme |  |
| human HIF prolyl hydroxylase 1 (HPH 1) with carboxy-terminal V5-HIS tag (protein) MPLGHIMRLDLEKIALEYIVPCLHEVGFCYLDNFLGEVVGDCVLERVKQLHCTGALRDGQLAGPRAGVSKRHLRGDQITWIGGNEEGCEAISFLLSLIDRLVLYCGSRLGKYYVKERSKAMVACYPGNGTGYVRHVDNPNGDGRCITCIYYLNKNWDAKLHGGILRIFPEGKSFIADVEPIFDRLLFFWSDRRNPHEVQPSYATRYAMTVWYFDAEERAEAKKKFRNLTRKTESALTED | unable to modify peptides containing the L562A, A563G or Y565A mutations | unable to modify peptides containing the L562A, A563G or Y565A mutations | unable to modify peptides containing the L562A, A563G or Y565A mutations | a peptide containing a mutation of Pro^567 to glycine served as an equal, if not better, substrate for the human HPH enzymes |  | Of the five candidate enzymes assayed, only one, HPH-1, was able to enhance pVHL association with the biotinylated peptide |
| human HPH 1 H135A with carboxy-terminal V5-HIS tag (protein) MPLGHIMRLDLEKIALEYIVPCLHEVGFCYLDNFLGEVVGDCVLERVKQLHCTGALRDGQLAGPRAGVSKRHLRGDQITWIGGNEEGCEAISFLLSLIDRLVLYCGSRLGKYYVKERSKAMVACYPGNGTGYVRAVDNPNGDGRCITCIYYLNKNWDAKLHGGILRIFPEGKSFIADVEPIFDRLLFFWSDRRNPHEVQPSYATRYAMTVWYFDAEERAEAKKKFRNLTRKTESALTED |  |  |  |  | Each of these mutations eliminated the prolyl hydroxylase activity of the native HPH 1 enzyme |  |
| human HPH 1 D137A with carboxy-terminal V5-HIS tag (protein) MPLGHIMRLDLEKIALEYIVPCLHEVGFCYLDNFLGEVVGDCVLERVKQLHCTGALRDGQLAGPRAGVSKRHLRGDQITWIGGNEEGCEAISFLLSLIDRLVLYCGSRLGKYYVKERSKAMVACYPGNGTGYVRHVANPNGDGRCITCIYYLNKNWDAKLHGGILRIFPEGKSFIADVEPIFDRLLFFWSDRRNPHEVQPSYATRYAMTVWYFDAEERAEAKKKFRNLTRKTESALTED |  |  |  |  | Each of these mutations eliminated the prolyl hydroxylase activity of the native HPH 1 enzyme |  |
